Data on 35 sequences can be found in the domain aggregation screens of Martell et al. (2025).

This data set is described as follows: soluble fraction after stress (log2 fold change); higher = more stays soluble; pooled small domains, quantitative proteomics. The note with it: stress: pH 4. Summed up:
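Values are log2 fold changes, and higher ones mean more of the domain stayed soluble. Each fold change reflects the soluble amount of a domain after acid stress and is taken as a measure of aggregation propensity. The stress was pH 4, applied to pooled custom libraries of small protein domains analysed by high-throughput quantitative proteomics.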
On to “HMFDLENIRLTLARRLNVAAHLRPKYVAGFTLLLKQNFPEQNAEDLLNRLEHNQWLKVNQREIEYSPRLLM”, for which the “soluble fraction (log2)” value was -1.23.

Consider “HMFDPAKQMQRIRKYAGMNRKEFSEWLNIPYRTMTDWELGNRTMPVYLLELIVYKVNHEIANA”, for which the “soluble fraction (log2)” value was -0.349.

Regarding “HMFDREKFIKLGQEFARVAFENVNKRATDRALKTAAKHYGLPSADELLARLGSSEIAARDVVAELYPNL”, the “soluble fraction (log2)” value was -0.28.

As for “HMFDSYDIYDEAGNTVNTVKGKLSWGHLLEIYDRFDNHIGTVQERVLTFLPKFLMYINGQEIGEIR”, the “soluble fraction (log2)” value was -0.334.

Consider “HMFDVNSMIAANIVAILKKQNRKQIDLAGALQTNKQTISKMLNGSRMINAIELKRIAEFLGVKMEELTKL”, for which the “soluble fraction (log2)” value was determined as 0.0597.

As for “HMFDVRWEQGYALAAAYAQEYGNLDVPRDYKTADGKKLGRWIQSQEQAYEQKKLSEEQISRLEMIGMQWG”, the “soluble fraction (log2)” value turned out to be 0.0698.

Turning to “HMFEDEPSEREIRISTLLAAFLKQEDGGTAVSRERFLKENSDVAEDLQILLEMADMIQEMAGP”, the “soluble fraction (log2)” value was -0.744.

Consider “HMFEKIDINFADIHQLKGLPLNSEQINSIIEYRNQNGFIENIYDLKNVNGISIDKVHELKSYIFIIDV”, for which the “soluble fraction (log2)” value is -1.96.

On to “HMFENPRALLEMMISLGNEQGLINMARDIVSAGEFRRLELAAGGDRRKLARMLIDHLVEVAPRLP”, for which the “soluble fraction (log2)” value is -0.585.

On to “HMFEQFEVENLQELQQEWGDKFNHNLEMARRAFMNFATPEAVKVLEETGMGNHPELLKVFARIGEVLAED”, for which the “soluble fraction (log2)” value is -1.22.

On to “HMFERINLIGVNGTTKKRSALVRLLDGEIVKIGVGDSLNGGQVVDISPATLTYLKSGKSIMLTLPK”, for which the “soluble fraction (log2)” value was 0.22.

Take “HMFGQRLRLARKRAGLSMQALAQRMSPPVTAQAISKYEADRMMPSSAVLVGLGKALGVSLDFLMGGQ”: the “soluble fraction (log2)” value is 0.068.

For the sequence “HMFHFELNAAKQALEDRKTIDRAKGILMRQRGMSEDDAYKLLRTTAMSQNRKVIDVAQALVTAADLL”, the “soluble fraction (log2)” value is 0.292.

Consider “HMFINTVELGRAIKRRREELGLSLRDVADVTNVSASTLSRIENGTGKPDADNIARLTGWLDMPIDRVM”, for which the “soluble fraction (log2)” value is 0.164.

In the case of “HMFIRINQTQNSPRKSVQIVESKRDGHKVRTKILRHVGIAMDDVELQKLKSLAQDIIAKMTVETENASKQ”, the “soluble fraction (log2)” value is 0.176.

“HMFKINQKVKLIAPLPYLKTSENMPMLRPPDLVAIDEIGEVLSLKSPETVEVRFRRGSFLIDIDKLEKVD”: the “soluble fraction (log2)” value is -0.996.

With “HMFKYLLDTNIVIYVIKKRPIEVMGVFNQNANRMAISAITFSELQHGAEKSVRVQENLNAIEEFTTLIDI”, the “soluble fraction (log2)” value was -0.537.

Regarding “HMFKYRELLDWAKNRFDDLEVSIAPKALALLVESIGTDLRLLDSEIQKLSMYKPLEMISTNDVEDLVA”, the “soluble fraction (log2)” value was -1.15.

For the sequence “HMFLTDHEVSKVARKRAHAEYLSSLSWRQRTFGDHGERSKNFEAWYKEHSHLYETEKLYKELYKN”, the “soluble fraction (log2)” value worked out at 0.245.

Regarding “HMFLTPLEEARLVIEEIVIPKNIAVDLSPRPSALRKQQHELIAHYQLKSFSVGNERTKRLRILPKVI”, the “soluble fraction (log2)” value is -0.46.

For “HMFMLQAKRVPVSELENFKGIVAEDVVSQSRALILPRGSNLSWLSSSAMQNLSTRLALEGVESISIYL”, the “soluble fraction (log2)” value is -1.8.

As to “HMFMVAGHLSEKNGYFYAVINYNDSLGNRKTKWMSTGLTVKGNKKRAEAILAEKRRTFQPDEPV”, the “soluble fraction (log2)” value is 0.129.

For “HMFNDPTMEDALVNLKGITNEVLSYLSSSKIKKLEELAEMSVPELKDIVENISDDEASALIMEARKPWF”, the “soluble fraction (log2)” value is -1.32.

“HMFNEFEDIPDIISAEGIDPAMREEVAANLKKYYKNPDAMLALAPLEREYYEKLVGILSEKIELKKEN”: the “soluble fraction (log2)” value was -0.361.

“HMFNFPEEVRVQLAKSEQLRNLLIPMSETVRDALSGEELWFGRTIFNTTSKKIESWTNPGVWVE”: the “soluble fraction (log2)” value is -1.28.

As for “HMFNIIARQEIDEILYEYKIENSEDYKNRDPEELAEIYENIKTVQENHDLSDDDVEELLKSIFSDY”, the “soluble fraction (log2)” value is -2.2.

As for “HMFNKTKVPNFIDMNYYEEIEGNSEYDKFNFADPITKNDDTKAPGTVIDQTPEKGTRIDEEKTVIQLTIA”, the “soluble fraction (log2)” value is -0.149.

For the sequence “HMFNRAVSDNEALQVREHFDRDATVMSLAKKYGVSTVTIQRILLGKTYRNVGGPLFDKATLKKRMGN”, the “soluble fraction (log2)” value was 0.13.

Take “HMFNVKAYEKAVKSYITKRKPLGEALDEEIMDELSVKFGIVDDALEDLFKQIQDAGISIVDKDGNPSPLAL”: the “soluble fraction (log2)” value is -1.78.

As to “HMFPELEPDEQLIADLLRKTNNLQINIITVRTGLPINRVTALLFQMEMKGVVRPLAGGTYHLLV”, the “soluble fraction (log2)” value is -0.389.

For “HMFPELSPEEQLIVEVLSKTNDLQVNLISVKTNIDISRLTSLLFTLEMKGVIKTFAGGMYHLL”, the “soluble fraction (log2)” value is -0.712.

Regarding “HMFPSLSPEEQAVVDVLQRNNDLQINMLSVQSGLTISRLTALLFQLEMKGVIKPLAGGMYHLL”, the “soluble fraction (log2)” value was -0.493.

Regarding “HMFPTLSPEEQRIVDQLAKENDLQANVIALRTALTIPQISALLFSLEMKGMVRLYAGGTYHLI”, the “soluble fraction (log2)” value was -0.142.

Regarding “HMFQPEQISKLNELETLVLDFIIKSPDKVQKATIRSLATQLHVSTTTIVRMSTKLGFNGWSELKFFLKNQS”, the “soluble fraction (log2)” value was -0.65.

For “HMFRDFSETLLRKLQAAGGFLPFTDKTDAEAIAEHFQVSKKTFKRAVGTLYKQRRILIDDEGITLIG”, the “soluble fraction (log2)” value turned out to be 0.252.
